Experimental data from patent US20180327499A1 (published 2018).
Each block holds one binder with its values, some of them ahead of it.

Experiments:
[1] = biological target: T1, recombinant human NKG2D/Fc chimera (R&D Systems) (human, UniProt P26718 78-216); assay: ELISA; table printed under the ELISA plot; legend values suggest HEK-293 cells
T1 chain: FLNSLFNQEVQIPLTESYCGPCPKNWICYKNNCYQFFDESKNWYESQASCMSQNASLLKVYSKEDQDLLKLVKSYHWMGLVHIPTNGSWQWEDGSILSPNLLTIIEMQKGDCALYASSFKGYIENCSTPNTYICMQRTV

[2] = biological target: T2, NKG2D on HEK-293T cells co-transfected with NKG2D and DAP10 (UniProt P26718 1-216); assay: flow cytometry; table printed under the HEK-293 plot; legend values suggest ELISA
T2 chain: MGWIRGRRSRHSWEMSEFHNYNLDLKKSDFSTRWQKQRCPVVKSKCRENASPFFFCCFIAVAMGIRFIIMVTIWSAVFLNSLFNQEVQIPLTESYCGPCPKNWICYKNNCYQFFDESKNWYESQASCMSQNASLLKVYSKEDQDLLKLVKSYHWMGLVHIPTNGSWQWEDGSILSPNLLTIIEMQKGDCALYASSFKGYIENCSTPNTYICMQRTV

sdAb c7b = assay: ELISA; table printed under the ELISA plot; legend values suggest HEK-293 cells
bsfAb ET1F8 = assay: flow cytometry
bsfAb ET2F9 = assay: flow cytometry

Kd [1]: 1710 nM | Kd [2]: 41.1 nM
B1: sdAb ET2F9 (VHH)
VHH: QVQLVQSGGGLVQPGGSLRLSCAASGFTFDDYAMSWVRQAPGKGLEWVSAISWSGRTTYYAESMKGRFTTSRDNAKNTLYLQMNSLKPEDTALYYCARGDVAIRGNLDAWGQGTQVTVSS

Kd (sdAb c7b): 6.07 nM
B2: Fc-NKG2D (Fc fusion)
chain: T1 chain

Kd (bsfAb ET1F8): 32.5 nM | Kd (bsfAb ET2F9): 33.2 nM
B3: transfected HEK-293 (receptor)
chain: T2 chain
